In publication PMC3980048:

Target: HIV-1 clade C (CZA97.012) gp140 Env trimer (HIV-1 clade C, strain CZA97.012)
Experiment: SEC

## HIV-1 clade C (CZA97.012) gp140 Env trimer (natural protein)
  stoichiometry N: 3
